B1: E3 ubiquitin-protein ligase MYLIP (Homo sapiens), Q8WY64 (parent)
chain: MLCYVTRPDAVLMEVEVEAKANGEDCLNQVCRRLGIIEVDYFGLQFTGSKGESLWLNLRNRISQQMDGLAPYRLKLRVKFFVEPHLILQEQTRHIFFLHIKEALLAGHLLCSPEQAVELSALLAQTKFGDYNQNTAKYNYEELCAKELSSATLNSIVAKHKELEGTSQASAEYQVLQIVSAMENYGIEWHSVRDSEGQKLLIGVGPEGISICKDDFSPINRIAYPVVQMATQSGKNVYLTVTKESGNSIVLLFKMISTRAASGLYRAITETHAFYRCDTVTSAVMMQYSRDLKGHLASLFLNENINLGKKYVFDIKRTSKEVYDHARRALYNAGVVDLVSRNNQSPSHSPLKSSESSMNCSSCEGLSCQQTRVLQEKLRKLKEAMLCMVCCEEEINSTFCPCGHTVCCESCAAQLQSCPVCRSRVEHVQHVYLPTHTSLLNLTVI
partner: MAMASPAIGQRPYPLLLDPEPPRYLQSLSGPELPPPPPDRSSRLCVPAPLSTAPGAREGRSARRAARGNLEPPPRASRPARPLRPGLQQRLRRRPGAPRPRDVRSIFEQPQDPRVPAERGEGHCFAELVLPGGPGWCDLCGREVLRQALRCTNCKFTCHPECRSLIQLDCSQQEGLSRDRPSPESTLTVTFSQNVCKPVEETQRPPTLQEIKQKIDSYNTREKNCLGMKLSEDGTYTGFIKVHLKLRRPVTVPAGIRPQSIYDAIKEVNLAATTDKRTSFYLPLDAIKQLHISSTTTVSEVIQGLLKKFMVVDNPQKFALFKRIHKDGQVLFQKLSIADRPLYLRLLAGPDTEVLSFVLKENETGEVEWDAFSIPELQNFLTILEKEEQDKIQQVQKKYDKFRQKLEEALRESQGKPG
B2: Microtubule-associated tumor suppressor candidate 2 (Homo sapiens), Q5JR59-3 (parent)
chain: MGHCCCKPYNCLQCLDKTNESALVKEKELSIELANIRDEVAFHTAKCEKLQKEKEELERRFEDEVKRLGWQQQAELQELEERLQLQFEAEMARLQEEHGDQLLSIRCQHQEQVEDLTASHDAALLEMENNHTVAITILQDDHDHKVQELMSTHELEKKELEENFEKLRLSLQDQVDTLTFQSQSLRDRARRFEEALRKNTEEQLEIALAPYQHLEEDMKSLKQVLEMKNQQIHEQEKKILELEKLAEKNIILEEKIQVLQQQNEDLKARIDQNTVVTRQLSEENANLQEYVEKETQEKKRLSRTNEELLWKLQTGDPTSPIKLSPTSPVYRGSSSGPSSPARVSTTPR

The variants in the first assay derive from B1. The conditions noted are these: with rasf5_human RASSF5, Q8WWW0.
In the case of N342S, the “effect of a mutation on the interaction” value is “with no effect”.

Variants of B2 are the subject of another assay. The conditions noted are these: with catz_human CTSZ.
On to A89V, for which the “effect of a mutation on the interaction” value is given as “with no effect”.

In a further assay the parent is B2. The conditions noted are these: with zn136_human ZNF136, P52737.
Sequence of zn136_human ZNF136, P52737 (P52737 whole entry): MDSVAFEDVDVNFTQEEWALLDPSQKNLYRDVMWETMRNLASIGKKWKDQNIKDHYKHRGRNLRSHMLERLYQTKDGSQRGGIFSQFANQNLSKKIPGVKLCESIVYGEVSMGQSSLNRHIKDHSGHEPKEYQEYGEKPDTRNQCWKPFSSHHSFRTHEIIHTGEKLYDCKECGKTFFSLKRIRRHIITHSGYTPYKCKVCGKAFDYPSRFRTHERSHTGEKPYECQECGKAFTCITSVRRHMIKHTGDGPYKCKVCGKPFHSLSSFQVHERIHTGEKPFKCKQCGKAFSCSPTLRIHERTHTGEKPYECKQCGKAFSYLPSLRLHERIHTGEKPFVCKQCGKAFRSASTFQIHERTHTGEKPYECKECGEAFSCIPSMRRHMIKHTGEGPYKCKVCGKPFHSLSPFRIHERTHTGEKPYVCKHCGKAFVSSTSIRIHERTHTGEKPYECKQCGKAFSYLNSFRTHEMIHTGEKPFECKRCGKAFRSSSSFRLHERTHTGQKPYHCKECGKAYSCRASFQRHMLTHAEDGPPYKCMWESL
For A89V, the “effect of a mutation on the interaction” value is given as “with no effect”.

The next assay covers variants of B2. The conditions noted are these: with TSGA10IP.
A89V: the “effect of a mutation on the interaction” value was “with no effect”.

In the next assay the parent is B2. The conditions noted are these: with kat5_human KAT5, Q92993.
Sequence of kat5_human KAT5, Q92993 (Q92993 whole entry, looked up): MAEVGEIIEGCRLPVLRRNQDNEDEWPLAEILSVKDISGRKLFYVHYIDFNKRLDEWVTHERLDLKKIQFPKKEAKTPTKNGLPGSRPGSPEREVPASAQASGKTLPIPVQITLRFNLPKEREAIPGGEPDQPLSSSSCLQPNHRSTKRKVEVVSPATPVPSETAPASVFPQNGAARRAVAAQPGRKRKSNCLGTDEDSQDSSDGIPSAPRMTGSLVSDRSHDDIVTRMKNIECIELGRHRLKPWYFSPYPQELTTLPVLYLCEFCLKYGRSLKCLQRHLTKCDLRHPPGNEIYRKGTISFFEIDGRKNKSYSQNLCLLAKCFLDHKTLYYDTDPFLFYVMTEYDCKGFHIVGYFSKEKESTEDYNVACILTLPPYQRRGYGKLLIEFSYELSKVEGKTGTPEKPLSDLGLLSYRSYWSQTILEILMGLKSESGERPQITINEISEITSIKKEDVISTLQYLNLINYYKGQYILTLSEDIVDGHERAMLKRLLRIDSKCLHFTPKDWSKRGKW
As for A89V, the “effect of a mutation on the interaction” value is on record as “with no effect”.

The next assay covers variants of B2. The conditions noted are these: with cd5r1_human CDK5R1, Q15078.
Sequence of cd5r1_human CDK5R1, Q15078 (Q15078 whole entry): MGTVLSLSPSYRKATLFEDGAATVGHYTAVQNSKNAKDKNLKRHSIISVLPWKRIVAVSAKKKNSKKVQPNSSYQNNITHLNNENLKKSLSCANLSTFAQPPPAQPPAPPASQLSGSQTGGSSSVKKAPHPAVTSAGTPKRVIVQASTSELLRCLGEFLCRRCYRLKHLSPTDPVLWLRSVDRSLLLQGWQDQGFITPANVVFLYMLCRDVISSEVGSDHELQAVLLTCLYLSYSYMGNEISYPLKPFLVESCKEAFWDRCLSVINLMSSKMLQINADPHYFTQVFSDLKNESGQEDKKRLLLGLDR
With A89V, the “effect of a mutation on the interaction” value is reported as “with no effect”.

The variants in a further assay derive from B2. The conditions noted are these: with bmp7_human BMP7, P18075.
Sequence of bmp7_human BMP7, P18075 (P18075 whole entry): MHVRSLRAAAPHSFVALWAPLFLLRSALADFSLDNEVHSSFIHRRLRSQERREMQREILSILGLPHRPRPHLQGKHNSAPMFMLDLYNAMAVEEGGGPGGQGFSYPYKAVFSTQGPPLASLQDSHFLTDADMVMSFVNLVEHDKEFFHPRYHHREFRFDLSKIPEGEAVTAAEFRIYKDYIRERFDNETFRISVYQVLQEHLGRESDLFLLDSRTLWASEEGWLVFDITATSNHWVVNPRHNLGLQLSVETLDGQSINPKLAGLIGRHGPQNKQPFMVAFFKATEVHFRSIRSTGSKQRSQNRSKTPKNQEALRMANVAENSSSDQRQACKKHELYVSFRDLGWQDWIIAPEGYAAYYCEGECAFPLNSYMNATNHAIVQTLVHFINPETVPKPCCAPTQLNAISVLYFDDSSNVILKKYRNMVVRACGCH
As for A89V, the “effect of a mutation on the interaction” value was “with no effect”.

Variants of B2 are the subject of another assay. The conditions noted are these: with gtpba_human GTPBP10, A4D1E9.
Sequence of gtpba_human GTPBP10, A4D1E9 (A4D1E9 whole entry): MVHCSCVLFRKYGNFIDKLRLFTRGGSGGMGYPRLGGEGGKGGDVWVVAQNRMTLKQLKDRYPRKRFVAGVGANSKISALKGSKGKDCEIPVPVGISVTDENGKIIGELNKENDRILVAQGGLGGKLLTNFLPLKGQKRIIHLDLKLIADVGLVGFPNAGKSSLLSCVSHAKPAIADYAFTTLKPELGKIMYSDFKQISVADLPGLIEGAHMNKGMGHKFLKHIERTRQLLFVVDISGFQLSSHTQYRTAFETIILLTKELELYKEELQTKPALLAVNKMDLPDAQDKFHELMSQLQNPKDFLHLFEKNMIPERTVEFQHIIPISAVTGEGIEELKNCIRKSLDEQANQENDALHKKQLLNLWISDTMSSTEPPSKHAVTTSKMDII
For the variant A89V, the “effect of a mutation on the interaction” value is “with no effect”.

A further assay covers variants of B2. The conditions noted are these: with cdkl3_human CDKL3, Q8IVW4.
Sequence of cdkl3_human CDKL3, Q8IVW4 (Q8IVW4 whole entry, looked up): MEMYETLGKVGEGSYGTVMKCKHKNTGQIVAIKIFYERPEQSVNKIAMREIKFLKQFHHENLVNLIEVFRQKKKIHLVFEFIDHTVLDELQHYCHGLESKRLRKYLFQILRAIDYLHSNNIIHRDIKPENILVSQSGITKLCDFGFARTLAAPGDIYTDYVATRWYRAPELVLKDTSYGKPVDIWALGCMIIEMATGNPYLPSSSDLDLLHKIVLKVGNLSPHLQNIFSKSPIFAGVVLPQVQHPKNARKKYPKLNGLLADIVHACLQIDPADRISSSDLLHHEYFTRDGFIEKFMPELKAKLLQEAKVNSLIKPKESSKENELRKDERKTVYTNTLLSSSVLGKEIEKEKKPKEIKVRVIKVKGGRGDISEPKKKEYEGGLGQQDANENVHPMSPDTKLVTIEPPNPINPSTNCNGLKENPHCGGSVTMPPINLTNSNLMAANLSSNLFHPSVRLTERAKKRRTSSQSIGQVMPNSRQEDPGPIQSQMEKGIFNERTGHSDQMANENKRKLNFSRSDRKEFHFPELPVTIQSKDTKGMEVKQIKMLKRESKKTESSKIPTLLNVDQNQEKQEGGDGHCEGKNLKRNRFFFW
As for A89V, the “effect of a mutation on the interaction” value was “with no effect”.

Another assay covers variants of B2. The conditions noted are these: with cu058_human C21orf58, P58505.
Sequence of cu058_human C21orf58, P58505 (P58505 whole entry): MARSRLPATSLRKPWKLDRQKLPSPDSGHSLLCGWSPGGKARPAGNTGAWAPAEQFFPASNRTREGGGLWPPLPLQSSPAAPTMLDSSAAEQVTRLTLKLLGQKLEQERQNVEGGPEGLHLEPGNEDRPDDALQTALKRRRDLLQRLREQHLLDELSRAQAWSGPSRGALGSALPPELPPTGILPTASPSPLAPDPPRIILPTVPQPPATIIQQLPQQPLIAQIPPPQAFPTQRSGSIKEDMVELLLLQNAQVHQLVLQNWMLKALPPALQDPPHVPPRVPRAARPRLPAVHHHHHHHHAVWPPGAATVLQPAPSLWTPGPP
For the variant A89V, the “effect of a mutation on the interaction” value is reported as “with no effect”.

In the next assay the parent is B2. The conditions noted are these: with zn426_human ZNF426, Q9BUY5.
Sequence of zn426_human ZNF426, Q9BUY5 (Q9BUY5 whole entry): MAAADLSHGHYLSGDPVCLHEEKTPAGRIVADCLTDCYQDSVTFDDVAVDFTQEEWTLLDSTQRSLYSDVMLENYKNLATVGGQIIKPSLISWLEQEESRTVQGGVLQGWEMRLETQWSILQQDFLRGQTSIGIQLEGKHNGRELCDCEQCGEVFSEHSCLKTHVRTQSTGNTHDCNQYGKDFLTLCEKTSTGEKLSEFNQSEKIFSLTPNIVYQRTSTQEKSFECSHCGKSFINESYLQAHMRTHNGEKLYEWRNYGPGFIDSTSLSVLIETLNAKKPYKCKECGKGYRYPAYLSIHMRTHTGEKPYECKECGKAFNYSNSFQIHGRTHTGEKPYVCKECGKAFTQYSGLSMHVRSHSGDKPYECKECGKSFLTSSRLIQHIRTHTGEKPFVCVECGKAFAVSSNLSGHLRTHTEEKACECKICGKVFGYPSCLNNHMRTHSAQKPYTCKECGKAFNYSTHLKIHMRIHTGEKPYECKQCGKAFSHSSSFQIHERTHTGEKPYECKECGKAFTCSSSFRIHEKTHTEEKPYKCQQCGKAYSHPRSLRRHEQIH
Turning to A89V, the “effect of a mutation on the interaction” value is listed as “with no effect”.

In a further assay the parent is B2. The conditions noted are these: with snai1_human SNAI1, O95863.
Sequence of snai1_human SNAI1, O95863 (O95863 whole entry): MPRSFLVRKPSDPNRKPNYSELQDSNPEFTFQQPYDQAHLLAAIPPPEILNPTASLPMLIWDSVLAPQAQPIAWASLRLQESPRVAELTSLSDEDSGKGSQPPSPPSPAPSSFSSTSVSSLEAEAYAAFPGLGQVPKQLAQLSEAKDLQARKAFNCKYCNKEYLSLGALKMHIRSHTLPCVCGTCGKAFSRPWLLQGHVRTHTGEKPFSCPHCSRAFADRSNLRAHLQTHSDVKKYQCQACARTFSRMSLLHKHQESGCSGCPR
For A89V, the “effect of a mutation on the interaction” value is listed as “with no effect”.

Variants of B2 are the subject of another assay. The conditions noted are these: with zn329_human ZNF329, Q86UD4.
Sequence of zn329_human ZNF329, Q86UD4 (Q86UD4 whole entry): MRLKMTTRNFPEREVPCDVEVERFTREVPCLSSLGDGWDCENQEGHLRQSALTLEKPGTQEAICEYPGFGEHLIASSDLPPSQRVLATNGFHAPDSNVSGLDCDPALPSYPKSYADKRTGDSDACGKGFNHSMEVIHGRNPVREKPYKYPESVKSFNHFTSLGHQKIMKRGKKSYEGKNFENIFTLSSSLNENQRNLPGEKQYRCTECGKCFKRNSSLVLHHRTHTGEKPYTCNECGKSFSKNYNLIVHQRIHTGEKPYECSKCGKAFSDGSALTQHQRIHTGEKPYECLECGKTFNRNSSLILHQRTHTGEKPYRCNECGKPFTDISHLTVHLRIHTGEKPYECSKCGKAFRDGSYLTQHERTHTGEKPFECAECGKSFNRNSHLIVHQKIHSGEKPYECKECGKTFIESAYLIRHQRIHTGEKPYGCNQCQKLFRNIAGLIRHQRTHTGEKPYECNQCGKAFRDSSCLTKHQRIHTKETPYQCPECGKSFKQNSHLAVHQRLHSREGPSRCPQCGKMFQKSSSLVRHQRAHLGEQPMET
Regarding A89V, the “effect of a mutation on the interaction” value is listed as “with no effect”.

For the origin of these results see IntAct's records for PubMed 31515488.
